As usually defined, the Kd is the equilibrium constant for the complex coming apart. One may read the IC50 as the concentration that gives 50% inhibition.

Experiment [1] concerns the target T1, human interleukin 5 (recombinant human IL-5, expressed in Drosophila Schneider 2 cells) (human, UniProt P05113 20-134).
T1 construct: also called hIL-5
The experiment is described as follows: optical biosensor.

Experiment [2] has as its target T1, human interleukin 5 (recombinant human …). Put plainly: IL-5R alpha binding inhibition assay (125I-IL-5, Drosophila membranes). As for the experimental part: Assays with *Drosophila* membranes containing receptor were performed in MultiscreenGV™ plates (Millipore Corp., Bedford, Mass.) using *Drosophila* tissue culture medium M3 (Lindquist et al., *Drosophila Inf. Serv.*, 58: 163 (1982)) containing 25 mM HEPES buffer pH 7.2 and 0.1% BSA (Binding Buffer). Wells were pre-blocked with 0.1 ml binding buffer. […] After 20 minutes incubation at room temperature, 25 ul of the membrane extract of *Drosophila* S2 cells expressing the α-chain of the human IL5R was added to the wells. After 1 hour further incubation the membranes were collected by vacuum filtration and washed 3× with binding buffer. Filters were dried and counted.
The Fd and κ cDNAs of mAb (2B6) were isolated by PCR using the conditions described above. The gel-purified fragments were subcloned into the pMKFabGene3 vector which had been modified to include the hexa-His sequence 3' of the gene III cDNA, resulting in the plasmid pMKFabGene3H. A functional, IL-5 binding Fab clone containing the 2B6 heavy and light chains was identified by a colony lift assay. Upon removal gene III via Nhe I/SpeI I digestion and self-ligation the heavy chain was fused in frame to the hexa-His, allowing purification as described above.

B1: recombinant Fab containing the 2B6 heavy and light chains (Fd fused to hexa-His) (Fab)
heavy (part 1 of 2): QVQLKESGPGLVAPSQSLSITCTVSGFSLTSYSVHWVRQPPGKGLEWLGVIWASGGTDYNSALMSRLSISKDNSKSQVFLKLNSLQTDDTAMYYCARDPPSSLLRLDYWGQGTTLTVSS
heavy (part 2 of 2): HHHHHH
light: DIVMTQSPSSLSVSAGEKVTMSCKSSQSLLNSGNQKNYLAWYQQKPGQPPKLLIYGASTRESGVPDRFTGSGSGTDFTLSISSVQAEDLAVYYCQNVHSFPFTFGSGTELEIK
notes: Expressed in E. coli from pMKFabGene3H after removal of gene III; also called Fab fragment from 2B6; 2B6 Fab; not shown: murine CH1 (rest of the 2B6 Fd); murine kappa constant region
As for B1, the Kd in experiment [1] was around 0.09 nM. The IC50 in experiment [2] is around 7.5 µg/mL.
